{"source": "paper PMC5452487", "conditions_in_all_cases": "EMSA with 0.75 ug rArcR-ACME and 61.2 pmol biotinylated probe; buffer, salt, pH and temperature not given in the material", "key": {"[1]": {"biological_target": "T1, rArcR-ACME (Staphylococcus aureus USA300_FPR3757) (UniProt E9KNS2)", "T1 sequence": "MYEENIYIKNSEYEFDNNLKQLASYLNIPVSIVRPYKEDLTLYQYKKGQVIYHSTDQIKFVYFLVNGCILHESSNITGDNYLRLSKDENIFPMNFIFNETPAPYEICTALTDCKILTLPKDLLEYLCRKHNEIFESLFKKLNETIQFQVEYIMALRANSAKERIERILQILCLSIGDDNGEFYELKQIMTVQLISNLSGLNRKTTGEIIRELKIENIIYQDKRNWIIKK", "assay": "competition"}, "[2]": {"biological_target": "T1, rArcR-ACME (Staphylococcus aureus USA300_FPR3757)", "assay": "EMSA"}, "[3]": {"biological_target": "T1, rArcR-ACME (Staphylococcus aureus USA300_FPR3757)", "assay": "UV cross-linking"}}}
{"sequence": "CAAATGATCACAGCATTTGGTACAGGAATCGGTGGCGACTTTGATCTAGCGAAAGCAAGATATCACAAAATCGTCATTATGACTGATGCCG (double strand) [gyrB fragment, non-specific competitor, 91 bp]", "values": [{"measurement": "binding", "setting": "[1]", "value": "no binding"}]}
{"sequence": "GTACAAAATACATATTCATACAAAATTTTGCATTGAATAAATCTATATATGTGAAAACCCTCCCTAAACAATTGTGAATTAAATCACACGATGTTTTTTGAAAGCGTTTTATAATGTGAATGT (double strand) [arcACME promoter fragment, unlabelled specific competitor]", "values": [{"measurement": "binding", "setting": "[1]", "value": "binds"}]}
{"sequence": "GTACAAAATACATATTCATACAAAATTTTGCATTGAATAAATCTATATATGTGAAAACCCTCCCTAAACAATTGTGAATTAAATCACACGATGTTTTTTGAAAGCGTTTTATAATGTGAATGT (double strand) [arcACME promoter probe, 123 bp]", "values": [{"measurement": "binding", "setting": "[2]", "value": "binds"}, {"measurement": "binding", "setting": "[3]", "value": "binds"}]}
